Assay [1] concerns the target T1, Y1 receptor-Gc (rat Y1 receptor fused at the C terminus to sfGFP fragment 155-238) (rat, UniProt P21555 1-382).
T1 construct: neuropeptide Y receptor type 1, rat; cDNA transferred to the pCMV FLAG vector for transfection; also called Y1-Gc; receptor of the Y1 A1, Y1 A2 and Y1 A2Δ cell lines; source: HEK293T, stably transfected into β-arrestin-Gn clonal lines; live or fixed cells, or membranes
T1 sequence (looked up): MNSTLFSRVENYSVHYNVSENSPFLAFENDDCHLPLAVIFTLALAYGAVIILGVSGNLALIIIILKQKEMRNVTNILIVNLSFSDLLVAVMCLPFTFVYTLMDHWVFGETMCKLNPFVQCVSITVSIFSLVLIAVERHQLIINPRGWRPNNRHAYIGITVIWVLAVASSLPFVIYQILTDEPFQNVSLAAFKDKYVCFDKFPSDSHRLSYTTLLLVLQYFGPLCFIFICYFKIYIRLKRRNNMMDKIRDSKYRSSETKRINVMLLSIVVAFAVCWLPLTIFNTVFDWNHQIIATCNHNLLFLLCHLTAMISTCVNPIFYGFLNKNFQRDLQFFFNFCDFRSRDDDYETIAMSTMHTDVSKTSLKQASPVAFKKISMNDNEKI
Nature of the assay: split reporter (BiFC, NanoBiT); sfGFP BiFC in stable HEK293 cells in 96 well plates, NPY 0.1 nM-3 μM for 60 min at 37 °C, fixed, confocal platereader images quantified by granularity analysis (average granule intensity/cell). The settings on record: partners not purified.

Assay [2] concerns the target T1, Y1 receptor-Gc (rat Y1 receptor fused …). Nature of the assay: radioligand binding; as a1 but on membranes of HEK293T BiFC cell lines co-expressing β-arrestin1-Gn (Y1 A1, Y16A A1); 16 pM [125I]PYY. The note with it: one partner purified.
For assay [3], the target named is T2, Y1 6A receptor-Gc (rat, UniProt P21555 1-382, S352A | T353A | T356A | S359A | T361A | S362A).
T2 construct: neuropeptide Y receptor type 1, rat, with six C tail serine/threonine residues changed to alanine; also called Y16A-Gc; receptor of the Y16A A1 and Y16A A2 cell lines; source: HEK293 cells stably co-expressing β-arrestin-Gn; live cells or membranes
T2 sequence (looked up): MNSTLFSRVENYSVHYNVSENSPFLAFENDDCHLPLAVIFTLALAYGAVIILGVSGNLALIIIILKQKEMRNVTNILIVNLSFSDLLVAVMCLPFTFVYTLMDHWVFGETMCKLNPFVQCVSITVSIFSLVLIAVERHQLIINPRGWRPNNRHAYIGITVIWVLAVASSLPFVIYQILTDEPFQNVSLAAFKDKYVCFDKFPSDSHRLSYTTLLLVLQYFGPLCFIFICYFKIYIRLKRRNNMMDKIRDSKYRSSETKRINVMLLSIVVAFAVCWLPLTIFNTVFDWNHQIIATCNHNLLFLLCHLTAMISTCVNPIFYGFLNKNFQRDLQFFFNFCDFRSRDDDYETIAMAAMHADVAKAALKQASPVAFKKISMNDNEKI
The assay is described as above. The settings on record: one partner purified.

Assay [4] concerns the target T3, Y1 receptor-sfGFP (rat NPY Y1 receptor, N-terminal FLAG, C-terminal superfolder GFP) (rat, UniProt P21555 1-382).
T3 construct: neuropeptide Y receptor type 1, rat; sfGFP here is enhanced GFP with S30R, Y39N, M153T and V163A (wild type GFP numbering), lacking the start Met; linker LRPLE between receptor C terminus and sfGFP; also called Y1sfGFP; Y1-sfGFP; source: membranes or live cells; not shown: sfGFP via linker LRPLE, C-terminal, kept
T3 sequence (looked up): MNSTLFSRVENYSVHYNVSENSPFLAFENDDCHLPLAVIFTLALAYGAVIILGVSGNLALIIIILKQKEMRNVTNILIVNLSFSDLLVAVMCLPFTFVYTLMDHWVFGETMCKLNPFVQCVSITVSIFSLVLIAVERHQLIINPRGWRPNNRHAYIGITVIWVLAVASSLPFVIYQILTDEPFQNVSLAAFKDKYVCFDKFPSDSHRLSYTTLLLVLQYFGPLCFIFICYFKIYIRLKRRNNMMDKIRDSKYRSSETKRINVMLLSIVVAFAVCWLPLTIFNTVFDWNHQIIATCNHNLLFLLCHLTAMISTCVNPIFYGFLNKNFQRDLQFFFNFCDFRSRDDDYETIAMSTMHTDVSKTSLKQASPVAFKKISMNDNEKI
Nature of the assay: radioligand binding; competition with [125I]PYY (16 pM for Y1, 10 pM for Y2 receptors) on membranes of tetracycline-induced 293TR Y receptor-sfGFP cell lines; 90 min at 21 °C; 25 mM HEPES, 2.5 mM CaCl2, 1.0 mM MgCl2, 0.1% BSA, 0.1 mg/ml bacitracin, pH 7.4; IC50 converted to pKi by the Cheng-Prusoff equation. The note with it: one partner purified.

Another assay deals with T4, Y1 6A receptor-sfGFP (rat, UniProt P21555 1-382, S352A | T353A | T356A | S359A | T361A | S362A).
T4 construct: neuropeptide Y receptor type 1, rat, with six C tail serine/threonine residues changed to alanine; also called Y16AsfGFP; source: membranes or live cells; not shown: sfGFP via linker LRPLE, C-terminal, kept
T4 sequence (looked up): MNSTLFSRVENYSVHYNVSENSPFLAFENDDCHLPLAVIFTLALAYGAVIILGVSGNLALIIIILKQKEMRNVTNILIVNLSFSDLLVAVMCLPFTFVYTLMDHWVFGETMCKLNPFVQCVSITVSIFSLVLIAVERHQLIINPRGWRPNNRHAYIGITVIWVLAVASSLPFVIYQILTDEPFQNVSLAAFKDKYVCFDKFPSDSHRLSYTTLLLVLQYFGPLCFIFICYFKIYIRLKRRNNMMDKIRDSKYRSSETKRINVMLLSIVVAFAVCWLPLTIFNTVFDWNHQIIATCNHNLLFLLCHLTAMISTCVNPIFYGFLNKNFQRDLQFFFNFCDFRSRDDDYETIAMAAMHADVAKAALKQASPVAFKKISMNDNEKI
The assay is described as above. The settings on record: one partner purified.

The target of assay [5] is T1, Y1 receptor-Gc (rat Y1 receptor fused …). As to the kind of experiment: radioligand binding; as a1 but on membranes of HEK293T BiFC cell lines co-expressing β-arrestin2-Gn (Y1 A2, Y16A A2); 16 pM [125I]PYY. The settings on record: one partner purified.
Assay [6] addresses T2, Y1 6A receptor-Gc. Described as above. The note with it: one partner purified.
For assay [7], the target named is T1, Y1 receptor-Gc (rat Y1 receptor fused …). As to the kind of experiment: radioligand binding; as a1 but on membranes of the HEK293T BiFC cell line co-expressing β-arrestin2 ΔLIEFD-Gn (Y1 A2Δ); 16 pM [125I]PYY. The note with it: one partner purified.

B1: β-arrestin1-Gn (human β-arrestin1 fused at the C terminus to sfGFP fragment 2-172) (natural protein, UniProt P49407 1-418, looked up)
chain: MGDKGTRVFKKASPNGKLTVYLGKRDFVDHIDLVDPVDGVVLVDPEYLKERRVYVTLTCAFRYGREDLDVLGLTFRKDLFVANVQSFPPAPEDKKPLTRLQERLIKKLGEHAYPFTFEIPPNLPCSVTLQPGPEDTGKACGVDYEVKAFCAENLEEKIHKRNSVRLVIRKVQYAPERPGPQPTAETTRQFLMSDKPLHLEASLDKEIYYHGEPISVNVHVTNNTNKTVKKIKISVRQYADICLFNTAQYKCPVAMEEADDTVAPSSTFCKVYTLTPFLANNREKRGLALDGKLKHEDTNLASSTLLREGANREILGIIVSYKVKVKLVVSRGGLLGDLASSDVAVELPFTLMHPKPKEEPPHREVPENETPVDTNLIELDTNDDDIVFEDFARQRLKGMKDDKEEEEDGTGSPQLNNR
notes: β-arrestin1, human, full length with the stop codon removed; The keyword list gives Gn as sfGFP 2-173, the methods as 2-172; also called A1; not shown: Gn (sfGFP fragment 2-172) via linker QRPLE, C-terminal, kept
Take B1: the “pEC50 of NPY in stimulating the BiFC response (β-arrestin recruitment)” value in assay [1] amounted to 8.3.

B2: peptide YY (PYY), unlabelled (peptide)
peptide: not shown
notes: neither species nor supplier is stated; surmised
Consider B2, for which the pKi – broadly, the negative decadic logarithm of the Ki, by convention in mol/L – in assay [2] worked out at 9.45; with Y1 6A receptor-Gc [3], 9.3; in assay [4] it was 9.5; with Y1 6A receptor-sfGFP, 9.22; in assay [5] it was 9.54; with Y1 6A receptor-Gc [6] it was 9.48. For the same molecule, the negative logarithm of the Ki (pKi) in assay [7] stood at 9.44.

The values are drawn from publication PMC3793875, “Fluorescence correlation spectroscopy, combined with bimolecular fluorescence complementation, reveals the effects of β-arrestin complexes and endocytic targeting on the membrane mobility of neuropeptide Y receptors” (Biochimica et Biophysica Acta, 2012).
